Source: patent publication US20220389120A1 (GENSUN BIOPHARMA, published 2022)

T1: recombinant human Ang2 (Biolegend) (human, UniProt O15123 19-496, limits assumed)
T1 construct: Bought reagent; also called angiopoietin-2
T1 sequence (looked up): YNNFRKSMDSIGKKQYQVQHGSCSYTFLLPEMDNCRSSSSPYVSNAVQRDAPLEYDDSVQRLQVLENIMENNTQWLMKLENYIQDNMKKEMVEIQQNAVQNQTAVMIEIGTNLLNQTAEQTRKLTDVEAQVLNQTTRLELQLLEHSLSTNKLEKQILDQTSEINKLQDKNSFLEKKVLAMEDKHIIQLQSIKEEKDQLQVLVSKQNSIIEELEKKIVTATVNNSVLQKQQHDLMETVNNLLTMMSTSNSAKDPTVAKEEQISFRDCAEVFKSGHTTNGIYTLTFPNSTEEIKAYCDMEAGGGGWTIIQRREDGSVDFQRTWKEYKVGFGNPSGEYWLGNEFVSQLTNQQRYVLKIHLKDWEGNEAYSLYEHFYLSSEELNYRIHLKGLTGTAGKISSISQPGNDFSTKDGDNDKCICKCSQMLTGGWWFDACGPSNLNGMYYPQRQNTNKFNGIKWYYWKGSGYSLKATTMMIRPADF

B1: GS01-A (other)
heavy: QVQLVQSGAEVKKPGASVKVSCKASGYTFTSYYIHWVRQAPGQGLEWMGWIFPGSGNSKYNENFKGRVTLTADTSTSTVYMELSSLRSEDTAVYYCASETYDYGDYWGQGTLVTVSSASTKGPSVFPLAPCSRSTSESTAALGCLVKDYFPEPVTVSWNSGALTSGVHTFPAVLQSSGLYSLSSVVTVPSSSLGTKTYTCNVDHKPSNTKVDKRVESKYGPPCPPCPAPEFLGGPSVFLFPPKPKDTLMISRTPEVTCVVVDVSQEDPEVQFNWYVDGVEVHNAKTKPREEQFNSTYRVVSVLTVLHQDWLNGKEYKCKVSNKGLPSSIEKTISKAKGQPREPQVYTLPPSQEEMGGAQTNFMPMDDLEQRLYEQFILQQGGGGSGGGGSGGGGSGGGGSTNFMPMDDLEQRLYEQFILQQGLETKNQVSLTCLVKGFYPSDIAVEWESNGQPENNYKTTPPVLDSDGSFFLYSRLTVDKSRWQEGNVFSCSVMHEALHNHYTQKSLSLSLGKGGGGSGGGGSGGGGSGGGGSEVQLVESGGGLVQPGGSLRLSCAASGFTISDYWIHWVRQAPGKGLEWVAGITPAGGYTYYADSVKGRFTISADTSKNTAYLQMNSLRAEDTAVYYCARFVFFLPYAMDYWGQGTLVTVSSGGGGSGGGGSGGGGSGGGGSDIQMTQSPSSLSASVGDRVTITCRASQDVSTAVAWYQQKPGKAPKLLIYSASFLYSGVPSRFSGSGSGTDFTLTISSLQPEDFATYYCQQGYGNPFTFGQGTKVEIK
light: DIQMTQSPSFLSASVGDRVTITCKASQNVGTNVAWYQQKPGKAPKALIYSASYRYSGVPSRFSGSGSGTEFTLTISSLQPEDFATYYCQQYYSYPYTFGQGTKLEIKRTVAAPSVFIFPPSDEQLKSGTASVVCLLNNFYPREAKVQWKVDNALQSGNSQESVTEQDSKDSTYSLSSTLTLSKADYEKHKVYACEVTHQGLSSPVTKSFNRGEC
notes: Trispecific PD-1/VEGF/Ang2 antagonist on an IgG4 Fc; also called trispecific construct GS01-A
B2: GS01-T (other)
heavy: QVQLVQSGAEVKKPGASVKVSCKASGYTFTSYYIHWVRQAPGQGLEWMGWIFPGSGNSKYNENFKGRVTLTADTSTSTVYMELSSLRSEDTAVYYCASETYDYGDYWGQGTLVTVSSASTKGPSVFPLAPCSRSTSESTAALGCLVKDYFPEPVTVSWNSGALTSGVHTFPAVLQSSGLYSLSSVVTVPSSSLGTKTYTCNVDHKPSNTKVDKRVESKYGPPCPPCPAPEFLGGPSVFLFPPKPKDTLMISRTPEVTCVVVDVSQEDPEVQFNWYVDGVEVHNAKTKPREEQFNSTYRVVSVLTVLHQDWLNGKEYKCKVSNKGLPSSIEKTISKAKGQPREPQVYTLPPSQEEMGGAQQEECEWDPWTCEHMGSGSATGGSGSTASSGSGSATHQEECEWDPWTCEHMGGTKNQVSLTCLVKGFYPSDIAVEWESNGQPENNYKTTPPVLDSDGSFFLYSRLTVDKSRWQEGNVFSCSVMHEALHNHYTQKSLSLSLGKGGGGSGGGGSGGGGSGGGGSEVQLVESGGGLVQPGGSLRLSCAASGFTISDYWIHWVRQAPGKGLEWVAGITPAGGYTYYADSVKGRFTISADTSKNTAYLQMNSLRAEDTAVYYCARFVFFLPYAMDYWGQGTLVTVSSGGGGSGGGGSGGGGSGGGGSDIQMTQSPSSLSASVGDRVTITCRASQDVSTAVAWYQQKPGKAPKLLIYSASFLYSGVPSRFSGSGSGTDFTLTISSLQPEDFATYYCQQGYGNPFTFGQGTKVEIK
light: B1 light
notes: Trispecific PD-1/VEGF/Ang1/Ang2 antagonist on an IgG4 Fc; also called trispecific construct GS01-T
B3: Bi-T0Z (Fc fusion)
chain: ESKYGPPCPPCPAPEFLGGPSVFLFPPKPKDTLMISRTPEVTCVVVDVSQEDPEVQFNWYVDGVEVHNAKTKPREEQFNSTYRVVSVLTVLHQDWLNGKEYKCKVSNKGLPSSIEKTISKAKGQPREPQVYTLPPSQEEMGGAQQEECEWDPWTCEHMGSGSATGGSGSTASSGSGSATHQEECEWDPWTCEHMGGTKNQVSLTCLVKGFYPSDIAVEWESNGQPENNYKTTPPVLDSDGSFFLYSRLTVDKSRWQEGNVFSCSVMHEALHNHYTQKSLSLSLGKGGGGSGGGGSGGGGSSDTGRPFVEMYSEIPEIIHMTEGRELVIPCRVTSPNITVTLKKFPLDTLIPDGKRIIWDSRKGFIISNATYKEIGLLTCEATVNGHLYKTNYLTHRQTNTIIDVVLSPSHGIELSVGEKLVLNCTARTELNVGIDFNWEYPSSKHQHKKLVNRDLKTQSGSEMKKFLSTLTIDGVTRSDQGLYTCAASSGLMTKKNSTFVRVHEK

target: T1, recombinant human Ang2 (Biolegend); assay: Tie2-Ang2 blocking ELISA
Description: 96-well assay plates were coated with 0.5 ug/ml of recombinant human Ang2 (Biolegend) in PBS at 4° C. overnight, then blocked with 1% BSA/PBS for 1 hour at room temperature. […] After washing with Wash Buffer, Streptavidin-HRP was added to the plate at 1:200 and incubated for 30 minutes at room temperature.

Binder	binding result
B1	binds
B2	binds
B3	binds
